Measured values published in PMC4352895 (2015).
Ends that are not written are not given here. Me3 = trimethyl-lysine; Me2 = dimethyl-lysine

molecular target: ΔEed (Eed residues 77 to 441) (UniProt O75530 77-441); assay: ITC
Sequence (O75530 77-441, stated change not applied): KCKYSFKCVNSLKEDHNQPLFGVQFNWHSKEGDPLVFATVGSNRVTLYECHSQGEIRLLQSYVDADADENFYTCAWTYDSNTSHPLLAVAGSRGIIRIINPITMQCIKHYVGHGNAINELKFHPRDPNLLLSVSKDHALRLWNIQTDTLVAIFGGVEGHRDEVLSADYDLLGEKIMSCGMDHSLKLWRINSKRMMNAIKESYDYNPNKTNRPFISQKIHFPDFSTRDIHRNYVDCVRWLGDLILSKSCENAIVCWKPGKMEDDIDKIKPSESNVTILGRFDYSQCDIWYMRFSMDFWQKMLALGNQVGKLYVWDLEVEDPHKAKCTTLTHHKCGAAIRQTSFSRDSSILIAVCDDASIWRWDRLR

Kd [µM] | Binder
68 | QLATKAARKSAPATG (dimethyl-Lys27 (mature numbering; K28 of precursor). Taken as the H3K27me2 peptide of the Figure 5C table; limits are mature 19-33 by convention for Eed binding peptides, not given) [H3K27me2]
10.4 | RLQAQRK(Me2)FAQSQY [Jarid2-K116me2 peptide]
36.4 | QLATKAARKSAPATG (trimethyl-lysine at K27) [H3K27me3 peptide]
3.4 | RLQAQRK(Me3)FAQSQY [Jarid2-K116me3 peptide]
